Measurements from patent publication US20260167718A1 (Merck Sharp & Dohme, published 2026).
Read-outs that look alike come from different tables or passages of the source. Each block holds one binder with its values, some of them ahead of it.

Assays:
[1] = biological target: T1, human ILT3 expressed on cells (human, UniProt Q8NHJ6 22-448); assay: cELISA, CHO human ILT3 cells
T1 construct: whole, on cells; also called huILT3; LILRB4
Description: (§1) Mouse anti-human ILT3 antibodies were tested for binding to human ILT3, and cross-reactivity to Rhesus monkey ILT3, human ILT5, human ILT7, human ILT8, and human ILT11 expressing CHO-K1 cells using a cell-based ELISA format. CHO-K1 cells were plated in 96-well tissue-culture plates in 50 μL of DMEM/F12, 10% BCS and gentamycin (CHO-K1 media). Cells were plated at either 2×10⁴ cells/well two days prior to the assay or 4×10⁴ cells/well one day prior to the assay. Media was removed from the wells prior to adding the test samples. Purified antibody was serially-diluted in CHO-K1 media and added to the CHO-K1 plates. The samples were incubated at room temperature for 30-60 minutes and plates were washed three times with PBS/05% Tween-20 using the cell wash program on the Biotek EL405x Select CW plate washer. Binding was detected using an HRP-conjugated goat anti-mouse IgG (Southern Biotech cat #1031-05) secondary antibody added at a 1:2000 dilution in CHO-K1 media and incubated at room temperature for 30-60 minutes. Assay plates were washed as above and developed with TMB and stopped with TMB stop solution (KPL cat #50-85-06). The absorbance at 450 nm—620 nm was determined. Mouse IgG1 (MIgG1) served as a control.

[2] = biological target: T1, human ILT3 expressed on cells; assay: cELISA, CHO human ILT3 cells; remark: listed apart in the source
[3] = biological target: T2, Human ILT3 (LILRB4) extracellular domain with C-terminal His Tag (human, UniProt Q8NHJ6 22-259); assay: SPR (Biacore), human ILT3-His
T2 construct: the claims count residues 1-238 as the extracellular domain; also called human ILT3-His; ILT3_H

[4] = biological target: T3, Rhesus monkey ILT3 expressed on CHO-K1 cells (rhesus monkey (Macaca mulatta)); assay: cELISA, CHO rhesus ILT3 cells
T3 construct: whole, on cells; also called rhILT3; CHO-rhesus ILT3
Description: as §1

[5] = biological target: T3, Rhesus monkey ILT3 expressed on CHO-K1 …; assay: cELISA, CHO rhesus ILT3 cells; remark: listed apart in the source
[6] = biological target: T4, rhesus ILT3-His tagged recombinant protein (rhesus monkey (Macaca mulatta)); assay: SPR (Biacore), rhesus ILT3-His
T4 construct: also called ILT3_MM; not shown: His tag
T4 chain: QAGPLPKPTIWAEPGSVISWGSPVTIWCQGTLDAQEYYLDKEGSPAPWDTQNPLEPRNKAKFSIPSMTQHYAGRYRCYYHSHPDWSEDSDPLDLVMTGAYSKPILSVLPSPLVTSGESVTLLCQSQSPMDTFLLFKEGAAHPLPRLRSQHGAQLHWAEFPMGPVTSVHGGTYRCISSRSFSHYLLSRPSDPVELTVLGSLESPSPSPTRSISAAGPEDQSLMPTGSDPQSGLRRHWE

[7] = biological target: T4, rhesus ILT3-His tagged recombinant …; assay: SPR (Biacore), rhesus ILT3-His
How it was run: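 Antibodies captured on anti-human Fc surface, with human or rhesus ILT3-His as analyte in HBS-EP+ running buffer; reference flow cell subtracted, regeneration with 3M MgCl₂. ka and kd obtained from 1:1 Langmuir fits, KD = kd/ka.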

[8] = biological target: T2, Human ILT3 (LILRB4) extracellular …; assay: SPR (Biacore), human ILT3-His; Table 7 value; Table 5 gives 1.79 × 10^-09 M
Description: The binding kinetics and affinities of anti-human ILT3 clones for human or rhesus ILT3-His tagged recombinant protein were measured by surface plasmon resonance using a Biacore™ T200 system (GE Healthcare, Piscataway, NJ). HBS-EP+ buffer (BR-1006-69) was used as the running buffer. Anti-human Fc antibody (Human Fc Capture Kit, BR100839, GE Healthcare) was immobilized via amine coupling chemistry in all four flow cells on a Series S CM5 sensor chip (BR100530 or 29149603, GE Healthcare) following manufacturer instructions. Flow cell 1 was used as reference for background subtraction and was not used for capture. […] Following each injection cycle, all four flow cells were regenerated using 30 second injection of 3M MgCl₂ solution at a flow rate of 10 μL/minute. Reference subtracted sensorgrams were fit to a 1:1 Langmuir Binding Model in the Biacore™ T200 Evaluation Software (Version 2.0) to determine the association (ka) and dissociation (kd) rate constants and the equilibrium dissociation constant KD (=kd/ka).
Table 7 summarizes the binding kinetics and affinities for the ani-human ILT3 antibodies to recombinant human or rhesus ILT3.

[9] = biological target: T2, Human ILT3 (LILRB4) extracellular …; assay: SPR (Biacore), human ILT3-His; remark: listed apart in the source
[10] = biological target: T5, human ILT5 expressed on CHO-K1 cells (human, UniProt O75022 24-631); assay: cell-based ELISA on CHO-K1 cells expressing human ILT5, HRP anti-mouse IgG, OD 450-650 nm
T5 construct: whole, on cells; also called CHO-ILT5
T5 sequence (O75022 24-631): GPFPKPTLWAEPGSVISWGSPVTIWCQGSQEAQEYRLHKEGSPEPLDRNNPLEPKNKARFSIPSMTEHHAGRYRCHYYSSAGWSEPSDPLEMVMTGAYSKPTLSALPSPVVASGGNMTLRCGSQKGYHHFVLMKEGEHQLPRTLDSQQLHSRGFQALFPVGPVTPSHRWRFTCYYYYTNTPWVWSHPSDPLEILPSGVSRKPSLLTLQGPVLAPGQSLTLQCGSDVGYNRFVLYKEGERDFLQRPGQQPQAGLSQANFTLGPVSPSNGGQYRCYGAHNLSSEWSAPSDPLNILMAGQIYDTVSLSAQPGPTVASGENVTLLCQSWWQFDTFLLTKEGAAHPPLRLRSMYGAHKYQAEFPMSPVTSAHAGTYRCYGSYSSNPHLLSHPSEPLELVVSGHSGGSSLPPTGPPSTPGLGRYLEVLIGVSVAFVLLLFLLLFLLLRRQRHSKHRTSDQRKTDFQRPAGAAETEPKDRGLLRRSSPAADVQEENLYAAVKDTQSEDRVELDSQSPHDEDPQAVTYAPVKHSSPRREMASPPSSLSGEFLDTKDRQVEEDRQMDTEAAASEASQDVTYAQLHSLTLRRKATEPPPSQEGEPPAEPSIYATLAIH
Description: as §1, with “The absorbance at 450 nm—620 nm was determined.” left out

[11] = biological target: T6, human ILT7 expressed on CHO-K1 cells (human, UniProt P59901 24-499); assay: cell-based ELISA on CHO-K1 cells expressing human ILT7, HRP anti-mouse IgG, OD 450-650 nm
T6 construct: whole, on cells
T6 sequence (P59901 24-499): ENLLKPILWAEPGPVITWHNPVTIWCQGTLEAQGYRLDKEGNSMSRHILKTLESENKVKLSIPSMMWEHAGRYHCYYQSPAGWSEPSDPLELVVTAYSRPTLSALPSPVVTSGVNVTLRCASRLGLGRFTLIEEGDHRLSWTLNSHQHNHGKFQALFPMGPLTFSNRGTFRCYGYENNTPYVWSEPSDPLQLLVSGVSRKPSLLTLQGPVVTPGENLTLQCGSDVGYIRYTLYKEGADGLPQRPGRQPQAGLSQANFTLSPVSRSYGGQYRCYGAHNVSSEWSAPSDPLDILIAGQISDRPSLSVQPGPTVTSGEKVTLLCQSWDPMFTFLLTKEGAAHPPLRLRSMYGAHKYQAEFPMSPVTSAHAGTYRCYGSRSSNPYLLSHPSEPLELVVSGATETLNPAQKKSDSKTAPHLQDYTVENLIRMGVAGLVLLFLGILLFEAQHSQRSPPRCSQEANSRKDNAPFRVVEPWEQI
Description: as §1, with “The absorbance at 450 nm—620 nm was determined.” left out

[12] = biological target: T7, human ILT8 expressed on CHO-K1 cells (human, UniProt Q6PI73 24-481); assay: cell-based ELISA on CHO-K1 cells expressing human ILT8, HRP anti-mouse IgG, OD 450-650 nm
T7 construct: whole, on cells; also called CHO-ILT8
T7 sequence (Q6PI73 24-481): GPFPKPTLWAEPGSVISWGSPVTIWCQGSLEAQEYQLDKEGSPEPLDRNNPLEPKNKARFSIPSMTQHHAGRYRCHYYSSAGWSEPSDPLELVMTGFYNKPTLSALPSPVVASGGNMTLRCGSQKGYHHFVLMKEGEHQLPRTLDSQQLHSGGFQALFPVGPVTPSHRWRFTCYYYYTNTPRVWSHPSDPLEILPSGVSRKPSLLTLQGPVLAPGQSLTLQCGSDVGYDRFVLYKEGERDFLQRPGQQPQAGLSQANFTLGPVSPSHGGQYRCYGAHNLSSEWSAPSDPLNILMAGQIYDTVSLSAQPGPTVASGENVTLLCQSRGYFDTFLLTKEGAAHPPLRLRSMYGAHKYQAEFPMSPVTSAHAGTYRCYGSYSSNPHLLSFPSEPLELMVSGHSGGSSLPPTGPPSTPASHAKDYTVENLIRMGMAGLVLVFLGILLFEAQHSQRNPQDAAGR
Description: as §1, with “The absorbance at 450 nm—620 nm was determined.” left out

[13] = biological target: T8, human ILT11 expressed on CHO-K1 cells (human, UniProt A6NI73 42-299); assay: cell-based ELISA on CHO-K1 cells expressing human ILT11, HRP anti-mouse IgG, OD 450-650 nm
T8 construct: whole, on cells
T8 sequence (A6NI73 42-299): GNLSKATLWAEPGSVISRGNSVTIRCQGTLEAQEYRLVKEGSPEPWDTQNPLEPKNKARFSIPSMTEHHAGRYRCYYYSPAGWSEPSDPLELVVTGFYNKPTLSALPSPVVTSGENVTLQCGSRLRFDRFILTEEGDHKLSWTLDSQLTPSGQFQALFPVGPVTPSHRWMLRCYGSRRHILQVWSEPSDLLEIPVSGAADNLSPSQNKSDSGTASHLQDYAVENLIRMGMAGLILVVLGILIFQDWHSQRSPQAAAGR
Description: as §1, with “The absorbance at 450 nm—620 nm was determined.” left out

EC50 [1]: 0.0179 µg/mL
EC50 [2]: 17.9 µg/mL
Kd [3]: 1.79 nM
EC50 [4]: 0.0259 µg/mL
EC50 [5]: 25.9 µg/mL
Kd [6]: 0.946 nM
Kd [7]: 0.995 nM
Kd [8]: 0.713 nM
B1: Rat anti-ILT3 mAb 40A6 IgG2a/Kappa (antibody, V domains shown)
VH: QVQLKESGPGLVQASETLSLTCTVSGFSLTSYSINWVRQSSGKGPEWMGRFWYDEGIAYNLTLESRLSISGDTSKNQVFLKMNSLRTGDTGTYYCTRDRDTVGITGWFAYWGQGTLVTVSS
VL: ETVMTQSPTSLSASIGERVTLNCKASQSVGVNVDWYQQTPGQSPKLLIYGSANRHTGVPDRFTGSGFGSDFTLTISDVEPEDLGVYYCLQYGSVPYTFGAGTKLELK
notes: Rat IgG2a/Kappa; also called p40A6; LB184.40A6.1C1

EC50 [1]: 0.0155 µg/mL
EC50 [2]: 0.0155 µg/mL
Kd [3]: 0.658 nM
EC50 [4]: 0.0232 µg/mL
Kd [9]: 0.658 nM
EC50 [5]: 23.2 µg/mL
Kd [6]: 24.4 nM
Kd [7]: 24.4 nM
binding result [10]: no binding (tested: 10000 ng/ml)
binding result [11]: no binding (tested: 10000 ng/ml)
binding result [12]: no binding (tested: 10000 ng/ml)
binding result [13]: no binding (tested: 10000 ng/ml)
B2: Mouse anti-ILT3 mAb 52B8 IgG2a/Kappa (antibody)
heavy: EVQLVESGGDLVKPGGSLKLSCAASGFTFSNYGMSWVRQTPDRRLEWVATISGGGDYTNYPDSMRGRFTISRDNAKNTLYLQMSSLKSEDTAMYYCGRRLWFRSLYYAMDYWGQGTSVTVSSAKTTAPSVYPLAPVCGDTTGSSVTLGCLVKGYFPEPVTLTWNSGSLSSGVHTFPAVLQSDLYTLSSSVTVTSSTWPSQSITCNVAHPASSTKVDKKIEPRGPTIKPCPPCKCPAPNLLGGPSVFIFPPKIKDVLMISLSPIVTCVVVDVSEDDPDVQISWFVNNVEVHTAQTQTHREDYNSTLRVVSALPIQHQDWMSGKEFKCKVNNKDLPAPIERTISKPKGSVRAPQVYVLPPPEEEMTKKQVTLTCMVTDFMPEDIYVEWTNNGKTELNYKNTEPVLDSDGSYFMYSKLRVEKKNWVERNSYSCSVVHEGLHNHHTTKSFSRTPGK
light: NIVLTQSPASLAVSLGQRATISCRASEKVDSFGNSFMHWYQQKPGQPPKLLIYLTSNLDSGVPARFSGSGSRTDFALTIDPVEADDAATYYCQQNNEDPYTFGGGTKLEIKRADAAPTVSIFPPSSEQLTSGGASVVCFLNNFYPKDINVKWKIDGSERQNGVLNSWTDQDSKDSTYSMSSTLTLTKDEYERHNSYTCEATHKTSTSPIVKSFNRNEC
notes: also called p52B8; LB181.52B8.1B1
